Values of other authors, collected in paper PMC3078175.

Target: IL-17RB (Homo sapiens) (UniProt Q9NRM6)
Sequence of UniProt Q9NRM6 (Q9NRM6 18-292): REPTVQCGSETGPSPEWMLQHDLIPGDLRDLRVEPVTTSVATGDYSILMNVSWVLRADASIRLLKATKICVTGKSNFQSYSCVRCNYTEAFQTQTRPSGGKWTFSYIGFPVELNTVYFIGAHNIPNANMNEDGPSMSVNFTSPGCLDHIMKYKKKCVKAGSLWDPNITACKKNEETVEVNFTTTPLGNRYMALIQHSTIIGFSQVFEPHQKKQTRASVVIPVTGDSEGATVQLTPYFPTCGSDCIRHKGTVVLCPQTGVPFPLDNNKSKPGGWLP

Kd: 7.6 nM
Substance: IL-17B (from UniProt Q9UHF5)
